According to publication PMC5505961:

Biological target: recombinant LHCII (major light-harvesting complex), Lhcb1*2 (AB80) derivative with N-terminal Cys-Cys-Cys motif, C79S and C-terminal His6 tag (pea (Pisum sativum))
Assay: sucrose density gradient ultracentrifugation; reconstituted monomers trimerized by His6 tag on Ni2+-sepharose columns, then sucrose density gradient (500 mM sucrose, 10 mM Tris-HCl pH 7.5, 5 mM TCEP, 0.05% (w/v) Triton X-100); trimer band collected and checked by CD (negative peak at 474 nm)

stoichiometry N: 3
Substance: recombinant LHCII (major light-harvesting complex), Lhcb1*2 (AB80) derivative with N-terminal Cys-Cys-Cys motif, C79S and C-terminal His6 tag (natural protein)
